Where “and” joins values, the source holds several entries; their conditions need not be identical. Equal values may be shown once.
Assays:
[1] = target: Jun (LexA fusion, positive control of the bacterial two-hybrid system); experiment: two-hybrid; bacterial two-hybrid (LexA-WT and LexA-MUT fusions) in E. coli SU202; heterodimerization represses lacZ; quantitative beta-galactosidase activity against the strain with empty vectors pSR658 and pSR659, n = 3
[2] = target: TraM (TraR antiactivator) of plasmid pAoF64/95 (Agrobacterium spp. (plasmid pAoF64/95)); experiment: as above

| fold lower beta-galactosidase activity than the empty-vector control strain [2] | Substance | fold lower beta-galactosidase activity than the empty-vector control strain [1] |
| --- | --- | --- |
| – | Fos (LexA fusion, positive control of the bacterial two-hybrid system) (natural protein) | 52 fold |
| 2 fold and 3 fold | TmsPs (short form of TmsP, tra M sequestering protein, of plasmid pAoF64/95) (natural protein) | – |
